# According to patent US20240167012:
# T1: gluten immunogenic peptide 33-mer from α-gliadin
# T1 chain: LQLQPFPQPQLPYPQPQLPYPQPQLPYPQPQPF
# T2: gluten immunogenic peptide 26-mer from γ-gliadin
# T2 chain: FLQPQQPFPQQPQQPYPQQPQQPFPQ
# B1: aspartic protease Rhodotorulapepsin (protein)
# chain: SLTSYQNDNLWAGKITIGSPAQSFIMDFDTGSSDLWVPSSACSGSGCGTHARYTATSSSTSKAVTGKTLNVQYGDGSTASGPVYSDSVTVGGLTATGQTFGTATTLTGNFGSSPSDGLVGMAYPALSQLGVPPFFNTLWSEGRVAANSFSFRLATQNSAASELYLGGLNSAKYVAGTTGYTPVISQTYWAINTNVAVNGQAVSGLGTLAAIADTGTTLIVVPTADAQTFWASVPGAAPYSGGGGYYTFPCNQAPKVTFQFPGSLTKWATPYLNLGTVSYGSNQCVGAIVGQDAGLNAWILGDSFLKGVYTTFDFANNRVGFSKLA
# Key:
# [1] = target: T1, gluten immunogenic peptide 33-mer from …
# [2] = target: T2, gluten immunogenic peptide 26-mer from …
# [3] = target: bovine serum albumin, P02769
# Sequence of bovine serum albumin, P02769 (P02769 25-607): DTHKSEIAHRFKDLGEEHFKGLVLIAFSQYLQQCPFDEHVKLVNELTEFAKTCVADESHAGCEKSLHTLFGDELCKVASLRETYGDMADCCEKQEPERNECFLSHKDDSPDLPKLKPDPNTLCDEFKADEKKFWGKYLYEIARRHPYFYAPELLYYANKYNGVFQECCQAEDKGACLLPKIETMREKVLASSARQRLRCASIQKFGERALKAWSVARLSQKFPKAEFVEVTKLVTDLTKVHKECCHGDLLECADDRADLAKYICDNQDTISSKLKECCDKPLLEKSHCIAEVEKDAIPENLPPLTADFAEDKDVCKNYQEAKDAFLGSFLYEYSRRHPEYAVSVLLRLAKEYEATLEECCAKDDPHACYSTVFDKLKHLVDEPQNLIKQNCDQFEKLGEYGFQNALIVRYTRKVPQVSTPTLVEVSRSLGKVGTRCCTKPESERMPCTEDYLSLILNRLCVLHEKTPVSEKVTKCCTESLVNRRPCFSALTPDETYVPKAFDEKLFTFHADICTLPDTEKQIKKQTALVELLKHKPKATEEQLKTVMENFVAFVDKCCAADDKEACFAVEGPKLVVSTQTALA
# [4] = target: gliadin
protein,measurement,setting,value
B1,"hydrolysis of the 33-mer, RP-HPLC (3 h, 37° C.)",[1],the optimal pH value for the hydrolysis reaction of the aspartic protease Rhodotorulapepsin on gluten immunogenic 33-mer is at pH 5.0
same,"hydrolysis of the 26-mer, RP-HPLC (3 h, 37° C.)",[2],the optimal pH value for the hydrolysis reaction of the aspartic protease Rhodotorulapepsin on gluten immunogenic 26-mer is at pH 3.0
same,relative proteolytic activity on BSA at different pH (A280 after TCA),[3],the maximum proteolytic activity of the aspartic protease Rhodotorulapepsin was found at pH 2.5
same,relative proteolytic activity on BSA at different temperatures (A280 after TCA),[3],the aspartic protease Rhodotorulapepsin still has relative activity of 93% at 40 °C
same,"hydrolysis of gliadin 7.5 mg/ml, SDS-PAGE (pH 3.0, 3 h)",[4],"even only 250 µg/ml of aspartic protease Rhodotorulapepsin was included in the enzyme mixture, gliadin was completely hydrolyzed"
same,"hydrolysis of gliadin at pH 2.5 to 7.0, R5 ELISA of residual gliadin",[4],the maximum activity of the aspartic protease Rhodotorulapepsin on gliadin was at pH 2.5
same,"hydrolysis of gliadin, SDS-PAGE",[4],"gliadin had been hydrolyzed by the aspartic acid protease Rhodotorulapepsin after 0.5 hours of reaction under all of the three pH conditions of pH2.5, pH3.0, and pH5.0"
same,"hydrolysis of gliadin, SDS-PAGE of residual gliadin (pH 3.0, 37° C., enzyme:gliadin 1:500)",[4],"after reaction for 30 minutes, more than 90% of gliadin has been hydrolyzed"
same,"relative activity to hydrolyze gliadin, ELISA of residual gliadin (pH 2.5, 1.5 h, pepsin 1 mg/ml plus Rhodotorulapepsin 0.05 mg/ml)",[4],the relative activity thereof is increased by 54% after adding the aspartic protease Rhodotorulapepsin
